The record followed here is patent US20230226096A1 (Orna Therapeutics, Inc., priority 2020, published 2023).

This data set concerns HEK293 cells. It counts as cell-based, human. To be noted: luminescence from secreted Gluc in supernatant 24 hours after transfection of HEK293 cells; circular RNA encoding Gluc with the named IRES (UTR truncated to 675 nt).

B1: Caprine Kobuvirus d50 (nucleic acid, listed as Kobuvirus sp.)
DNA: CCGGGCCACCGATACTTCCCTTCACTCCTTCGGGACTGTTGGGGAGGAACACAACAGGGCTCCCCTGTTTTCCCATTCCTTCCCCCTTTTCCCAACCCCAACCGCCGTATCTGGTGGCGGCAAGACACACGGGTCTTTCCCTCTAAAGCACAATTGTGTGTGTGTCCCAGGTCCTCCTGCGTACGGTGCGGGAGTGCTCCCACCCAACTGTTGTAAGCCTGTCCAACGCGTCGTCCTGGCAAGACTATGACGTCGCATGTTCCGCTGCGGATGCCGACCGGGTAACCGGTTCCCCAGTGTGTGTAGTGCGATCTTCCAGGTCCTCCTGGTTGGCGTTGTCCAGAAACTGCTTCAGGTAAGTGGGGTGTGCCCAATCCCTACAAAGGTTGATTCTTTCACCACCTTAGGAATGCTCCGGAGGTACCCCAGCAACAGCTGGGATCTGACCGGAGGCTAATTGTCTACGGGTGGTGTTTCCTTTTTCTTTTCACACAACTCTACTGCTGACAACTCACTGACTATCCACTTGCTCTCTTGTGCCTTTCTGCTCTGGTTCAAGTTCCTTGATTGTTTTTGACTGCTTTTCACTGCTTTTCTTCTCACAATCCTTGCTCAGTTCAAAGTC
As to B1, the Expression is on record as 9.65E+07.

B2: Niviventer confucianus picornavirus (nucleic acid)
DNA: CCCTTTCATAACCCCCCCCTTTTAACCCAACCCTTCGTAACCGTACGCTTCACTCGCCTTTGGGTATAGCGGCCCAATGTGCTGAAGAAAAGGATACGCTATAAGGGGCCAACGGGTGGTGGCCCTTAAGACCACCCAACCTAGAAGCTTGTACACTCGGGCAATAGTGAGGCCCACATCCAGTGGGTCAAGCCCAAAGCATTCTTGTTCCCCGGTATGATCTCATAAGCTGTACCCACGGCTGAAAGAGTGATTATCGTTATCCCACTCAGTACTTCGGAGAGCCTAGTACACCACTTGGAAATGGAAGTCTGTGATCCGGGGTTGACCCTGAACCCCAGAAACTCATGATGAGGCTAACCTTCCCGAACACGGCGACGTGTGGTTAGCCTGCGCTGGCATGAGGCCTCTTTGTAGGCAGACTGAAATGGAAGGGTGACGAAGAGCCGACTGAGCTACTGTTTTATTCCTCCGGCCCCCTGAATGCGGCTAATCCTAACTCCTGGTCCAGTACTTGTAACCCAACAGGTGGCTGGTCGTAATGCGTAAGCCGGGAGCGGAACCGACTACTTTGGGGCGTCCGTGTTTCTCAATATTATTCATTTCTAGCTTATGGTGACAATTTATGATTGCAGAGATTGTGCTGTATTTGTGTCTGAGAGAAGAAGTAACAAT
In turn, B2 had an Expression of 6.10E+07.

B3: Aichivirus A FSS693 (nucleic acid)
DNA: CACCCATACACCCCCACCCCCTTTTCTGTAACTCAAGTATGTGTGCTCGTAATCTTGACTCCCACGGAATGGATCGATCCGCTGGAGAACAAACTGCTAGATCCACATCCTCCCTCCCCTTGGGAGGACCTCGGTCCTCCCACATCCTCCCTCCAGCCTGACGTATCACAGGCTGTGTGAAGCCCCCGCGAAAGCTGCTCACGTGGCAATTGTGGGTCCCCCCTTCATCAAGACACCAGGTCTTTCCTCCTTAAGGCTAGCCCCGATGTGTGAATTCACATTGGGCAACTAGTGGTGTCACTGTGCGCTCCCAATCTCGGCCGCGGAGTGCTGTTCCCCAAGCCAAACCCCTGGCCCTTCACTATGTGCCTGGCAAGCATATCTGAGAAGGTGTTCCGCTGTGGCTGCCAGCCTGGTAACAGGTGCCCCAGTGTGCGTAACCTTCTTCCGTCTCCGGACGGTAGTGATTGGTTAAGATTTGGTGTAAGGTTCATGTGCCAACGCCCTGTGCGGGATGAAACCTCTACTGCCCTAGGAATGCCAGGCAGGTACCCCACCTTCGGGTGGGATCTGAGCCTGGGCTAATTGTCTACGGGTAGTTTCATTTCCAATTCTTTTATGCTGGAGTC
modifications: Aichivirus A
Consider B3, for which the Expression turned out to be 6.25E+07.

B4: Picornavirales sp. isolate RtMruf-PicoV (nucleic acid)
DNA: TTTGCTCAGCGTAACTTCTCCGGGTTACGTGGAGACCAAAAGGCTACGGAGACTCGGGCTACGGCCCTGGAGCACCTAGGTGCTCCTAAAGACGTTAGAAGTTGTACAAACTCGCCCAATAGGGCCCCCCAACCAGGGGGGTAGCGGGCAAGCACTTCTGTTTCCCCGGTATGATCTCATAGGCTGTACCCACGGCTGAAAGAGAGATTATCGTTACCCGCCTCACTACTTCGAGAAGCCCAGTAATGGTTCATGAAGTTGATCTCGTTGACCCGGTGTTTCCCCCACACCAGAAACCTGTGATGGGGGTGGTCATCCCGGTCATGGCGACATGACGGACCTCCCCGCGCCGGCACAGGGCCTCTTCGGAGGACGAGTGACATGGATTCAACCGTGAAGAGCCTATTGAGCTAGTGTTGATTCCTCCGCCCCCGTGAATGCGGCTAATCCCAACTCCGGAGCAGGCGGGCCCAAACCAGGGTCTGGCCTGTCGTAACGCGAAAGTCTGGAGCGGAACCGACTACTTTCGGGAAGGCGTGTTTCCTTTTGTTCCTTTTATCAAGTTTTATGGTGACAACTCCTGGTAGACGTTTTATTGCGTTTATTGAGAGATTTCCAACAATTGAACAGACTAGAACCACTTGTTTTATCAAACCCTCACAGAATAAGATAACA
On to B4, for which the Expression is on record as 2.26E+08.

B5: Apodemus agrarius picornavirus strain Longquan-Aa118 (nucleic acid)
DNA: TTACTCAGCGTAACTACTCCGGGTTACGTGATGAAGAAGAGGCTACGGAGATTCTCGGGCTACGGCCCTGGAGCCACTCCGGCTCCTAAAGATTTAGAAGTTTGAGCACACCCGCCCACTAGGGCCCCCCATCCAGGGGGGCAACGGGCAAGCACTTCTGTTTCCCCGGTATGATCTGATAGGCTGTAACCACGGCTGAAACAGAGATTATCGTTATCCGCTTCACTACTTCGAGAAGCCTAGTAATGATGGGTGAAATTGAATCCGTTGATCCGGTGTCTCCCCCACACCAGAAACTCATGATGAGGGTTGCCATCCCGGCTACGGCGACGTAGCGGGCATCCCTGCGCTGGCATGAGGCCTCTTAGGAGGACGGATGATATGGATCTTGTCGTGAAGAGCCTATTGAGCTAGTGTCGACTCCTCCGCCCCCGTGAATGCGGCTAATCCTAACCCCGGAGCAGGTGGGTCCAATCCAGGGCCTGGCCTGTCGTAATGCGTAAGTCTGGGACGGAACCGACTACTTTCGGGAAGGCGTGTTTCCATTTGTTCATTATTTGTGTGTTTATGGTGACAACTCTGGGTAAACGTTCTATTGCGTTTATTGAGAGATTCCCAACAATTGAACAAACGAGAACTACCTGTTTTATTAAATTTACACAGAGAAGAATTACA
Molecule B5 returned an Expression of 1.90E+08.

B6: Bat picornavirus isolate BtRs-PicoV (nucleic acid)
DNA: TTTCAAAAGGCCCTGGGCATACGGCGTTATTCGTAACGTCGTATGTCCAGGGCGGTAGCATCAGGCCAAGGCCTGATGCTACCACGTGTGGACTAAACCACACACTCTTCTTGTGACACGTTGTGTCACCTATCCCTTTCTTGGTAACTTAGAAGCTTGTACACTTACGCACGTAGGTGCCCCACATCCAGTGGGGTTTGTGCAAAGCAATCTTGTTCCCCGGTAAACCCTGATAGGCTGTAACCACGGCCGAAACAAGGTTTGTCGTTACCCGACTCACTACTACACAAAGCCTAGTAAAGTTCAATGAAAGTGCGCAGCGTGATCCGGTCAAAACCCCCTTGACCAGAAACACATGATGAGGGTCACCAACCCCCACTGGCGACAGTGTGGTGTCCCTGCGTTGGCATGTGGCCTCGTAGAGGCGTTGCAATCTGGATTTGCTCCGAAGAGCCCCGTGTGCTAGTGTTTATACCTCCGGCCCCTTGAATGCGGCTAATCCTAACCCCCGAGCATGTACACACAAGCCAGTGTGTAGCATGTCGTAATGAGCAATTTGGGGATGGAACCGACTACTTTAGGGTGTCCGTGTTTCTCATTATTCTTTGTTTGATGTTTT
In turn, B6 returned an Expression of 1.13E+06.
